This note sets out measurements from the supplement of paper PMC10126150.

± gives the standard deviation of the averaged measurements.

For this data set, the system named is ATP. The data set is described as follows: switch fluorescence ratio, 500 uM ATP over buffer (Cy3 cluster intensity, sum of 5 cycles each) (fold (ratio)); higher = stronger signal-on switching upon ATP binding; sequences stand for … in TCGTCGGCAGCGTCAGATGTGTATAAGAGACAGTTTTTTTTTTTTTTTTTTTTTTTTT…TC. The following applies: aptamer strand: ATP DNA aptamer (quencher-CACCTGGGGGAGTATTGCGGAGGAAGG + anchor), 100 nM annealed; ATP concentration: 500 uM. The procedure, abridged: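 Clusters with intensities outside 100-1000 RFU were excluded. The remaining Cy3-labelled switching-strand clusters on a modified Illumina MiSeq flow-cell had been annealed to 100 nM quencher-labelled ATP aptamer and imaged in selection buffer, then after 15 min with 500 uM ATP at 22 °C, for five cycles separated by NaOH stripping and re-annealing. The fluorescence ratio, averaged per switch-domain sequence, is each cluster's summed target-cycle Cy3 intensity over its summed buffer-cycle Cy3 intensity.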
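Also: ATP exposure 15 min at 22 °C before imaging.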

Regarding GGCCGAGGGT, the switch fluorescence ratio was found to be 1.03 ± 0.025. For GGCCGCCTTG the value was 1 ± 0.037; for GGCCGCGGAC, 1.01 ± 0.035; for GGCCGGCAAC, 0.9996 ± 0.0039.

Consider GGCCGGCAGG, for which the switch fluorescence ratio turned out to be 0.972 ± 0.024.

Regarding GGCCGGCTAA, the switch fluorescence ratio worked out at 0.997 ± 0.011. For the sequence GGCCGGGAAT, the switch fluorescence ratio turned out to be 0.9941 ± 0.0028. Consider GGCCGGGACT, for which the switch fluorescence ratio is 0.987 ± 0.062. For the sequence GGCCGGGGAG, the switch fluorescence ratio amounted to 0.981 ± 0.018.

As to GGCCGGGGGC, the switch fluorescence ratio worked out at 0.994 ± 0.047. As to GGCCGTGAGG, the switch fluorescence ratio worked out at 1.01 ± 0.0098.

In the case of GGCCGTTCGT, the switch fluorescence ratio came to 1.008 ± 0.0091. With GGCCGTTTGG the figure was 0.981 ± 0.032. With GGCCTAAAAG the figure was 0.978 ± 0.022. With GGCCTCAAGG the figure was 1.06 ± 0.04; with GGCCTGGATT, 1.05 ± 0.031.

As to GGCCTGGGCT, the switch fluorescence ratio is 1.02 ± 0.061. Turning to GGCCTGGTGT, the switch fluorescence ratio was 1.29 ± 0.21. Take GGCCTTATCG: the switch fluorescence ratio was 0.991 ± 0.048. In the case of GGCCTTGGCA, the switch fluorescence ratio stood at 1.03 ± 0.015.

Regarding GGCCTTTATT, the switch fluorescence ratio was 1.01 ± 0.031. With GGCGACCTGG the figure was 0.993 ± 0.021; with GGCGAGAACG, 0.986 ± 0.018; with GGCGCAACAG, 1.44 ± 0.14. For GGCGCAACCG the value was 1.09 ± 0.015; for GGCGCAAGGA, 2.41 ± 1.9. For GGCGCAGTGG the value was 1.11 ± 0.041; for GGCGCCTTTT, 0.988 ± 0.033. As for GGCGCGGAGG, the switch fluorescence ratio stood at 0.992 ± 0.019. For GGCGCTGGAT the value was 1.02 ± 0.019; for GGCGGAAGAA, 1.07 ± 0.013. Take GGCGGCGAGG: the switch fluorescence ratio was 1.02 ± 0.011.

With GGCGGCGCAA, the switch fluorescence ratio amounted to 1.51 ± 0.16.

GGCGGCGCTG: the switch fluorescence ratio stood at 1.03 ± 0.028.

Turning to GGCGGGAAAG, the switch fluorescence ratio was 0.983 ± 0.037.

For the sequence GGCGGGATCT, the switch fluorescence ratio came to 1.21 ± 0.26.

For the sequence GGCGGGGTAG, the switch fluorescence ratio worked out at 0.996 ± 0.032.

GGCGTAATCT: the switch fluorescence ratio amounted to 1.04 ± 0.037. GGCGTACTTG: the switch fluorescence ratio turned out to be 1.01 ± 0.012. For the sequence GGCGTAGGAG, the switch fluorescence ratio stood at 0.997 ± 0.021. For GGCGTATCAG the value was 0.979 ± 0.051; for GGCGTGGCGG, 0.994 ± 0.019; for GGCGTTGCGG, 0.9849 ± 0.0058. For GGCGTTTTCG the value was 0.997 ± 0.044.

In the case of GGCTAAGACT, the switch fluorescence ratio came out at 0.988 ± 0.024. Regarding GGCTACTGAG, the switch fluorescence ratio came to 1.08 ± 0.066. Turning to GGCTAGTGAC, the switch fluorescence ratio was found to be 1 ± 0.03. For GGCTATGTGG the value was 0.987 ± 0.03. For GGCTATTTTG the value was 0.999 ± 0.073; for GGCTCGGCAG, 1.05 ± 0.043. For GGCTCGGTAC the value was 1.24 ± 0.13; for GGCTCTTAGG, 0.975 ± 0.03; for GGCTGAAAGT, 0.991 ± 0.016. On to GGCTGACATT, for which the switch fluorescence ratio is 0.979 ± 0.046. For GGCTGACCGG the value was 1 ± 0.048; for GGCTGACGTC, 1 ± 0.038. With GGCTGAGGCG the figure was 0.965 ± 0.024; with GGCTGATGCA, 0.938 ± 0.034; with GGCTGCAATG, 1.39 ± 0.069. For GGCTGGAAAC the value was 1.23 ± 0.22; for GGCTGGGCTG, 0.991 ± 0.029; for GGCTGGGGCA, 0.979 ± 0.021. Consider GGCTGGTGTG, for which the switch fluorescence ratio is 1.02 ± 0.029. As for GGCTGTTAAA, the switch fluorescence ratio is 0.978 ± 0.019. For the sequence GGCTTAAGGG, the switch fluorescence ratio turned out to be 0.972 ± 0.025.

As to GGCTTAATGA, the switch fluorescence ratio was 0.971 ± 0.029.

As for GGCTTAGGGG, the switch fluorescence ratio amounted to 0.979 ± 0.022. With GGCTTATAGG the figure was 1.02 ± 0.036; with GGCTTCACGA, 1.07 ± 0.014.

Regarding GGCTTCTGCT, the switch fluorescence ratio was determined as 0.959 ± 0.022.

In the case of GGCTTGAAGG, the switch fluorescence ratio was determined as 1.03 ± 0.032. For the sequence GGCTTGGCGT, the switch fluorescence ratio is 0.98 ± 0.034. For GGCTTGGGTT the value was 1.01 ± 0.039. For GGCTTTATTC, the switch fluorescence ratio amounted to 0.984 ± 0.044. On to GGCTTTCCTG, for which the switch fluorescence ratio is 1.1 ± 0.089. With GGCTTTGAGG the figure was 1.01 ± 0.019; with GGCTTTGCCC, 0.9669 ± 0.0028; with GGCTTTTACG, 1.03 ± 0.042. For GGCTTTTGTG the value was 0.974 ± 0.036; for GGCTTTTTTT, 0.994 ± 0.029; for GGGAAAAAAG, 0.994 ± 0.026. For GGGAAAAACA the value was 1.02 ± 0.05; for GGGAAAAAGA, 1.03 ± 0.012. For GGGAAAAATA, the switch fluorescence ratio turned out to be 1.24 ± 0.51. With GGGAAAAGA the figure was 1.04 ± 0.018; with GGGAAAATGG, 1.01 ± 0.016; with GGGAAACAAA, 0.96 ± 0.059. With GGGAAACAAT the figure was 1.55 ± 0.91; with GGGAAAGATG, 0.986 ± 0.042. On to GGGAAAGGGC, for which the switch fluorescence ratio is 0.961 ± 0.021. As for GGGAAAGGGT, the switch fluorescence ratio was 1 ± 0.014. With GGGAAATAAA the figure was 0.988 ± 0.013; with GGGAAATAGT, 0.9877 ± 0.0057. On to GGGAAATATT, for which the switch fluorescence ratio amounted to 1.06 ± 0.14.

In the case of GGGAAATCAT, the switch fluorescence ratio turned out to be 0.997 ± 0.015. With GGGAAATTAT, the switch fluorescence ratio turned out to be 0.9917 ± 0.0045.

For GGGAACTTGG, the switch fluorescence ratio came out at 0.986 ± 0.0099. With GGGAAGAAAT, the switch fluorescence ratio was determined as 1 ± 0.037. GGGAAGACGA: the switch fluorescence ratio came out at 1.01 ± 0.014. On to GGGAAGAGAG, for which the switch fluorescence ratio came out at 0.985 ± 0.021. On to GGGAAGGCCA, for which the switch fluorescence ratio stood at 0.973 ± 0.024.

With GGGAAGGGGC, the switch fluorescence ratio was found to be 1.02 ± 0.018. For GGGAAGGGTA the value was 1 ± 0.033; for GGGAAGGTTT, 1.01 ± 0.012; for GGGAAGTTTG, 1 ± 0.038. With GGGAATAGAT, the switch fluorescence ratio was determined as 0.9835 ± 0.002. Consider GGGAATAGCT, for which the switch fluorescence ratio is 0.999 ± 0.03. In the case of GGGAATAGGG, the switch fluorescence ratio came to 1.01 ± 0.02.

With GGGAATATTA, the switch fluorescence ratio was determined as 1.04 ± 0.023. As to GGGAATCGTA, the switch fluorescence ratio was determined as 1.04 ± 0.015. For GGGAATCGTG the value was 0.983 ± 0.012; for GGGAATGGGT, 1.01 ± 0.014; for GGGAATTACT, 1.87 ± 1.1.

As to GGGAATTTAA, the switch fluorescence ratio was determined as 1.02 ± 0.019. Regarding GGGAATTTGC, the switch fluorescence ratio worked out at 1 ± 0.036. For GGGAATTTGT the value was 0.9942 ± 0.0096; for GGGAATTTTT, 1 ± 0.053. With GGGACAAGAT the figure was 0.999 ± 0.026; with GGGACACGA, 0.988 ± 0.024. With GGGACAGAGG the figure was 0.988 ± 0.0047.
